The record followed here is PMC5967319.

The target of this assay is eukaryotic initiation factor 4E (eIF4E) (human (endogenous in HEK293T)) (UniProt P06730). Kind of assay: pull-down; eIF4E captured from HEK293T lysate (1 mg protein) on m7GTP-agarose (cap analog), 4 °C, 90 min, 50 mM HEPES pH 7.4, 50 mM NaCl; eluted with 0.5 mM m7GTP; blots for eIF4E and 4EBP1; cells in complete medium or medium without His, Arg, Leu or Met for 12 h, or transfected with empty vector, wild-type or T37A/T46A 4EBP1 for 24 h.
UniProt P06730, sequence (P06730 whole entry): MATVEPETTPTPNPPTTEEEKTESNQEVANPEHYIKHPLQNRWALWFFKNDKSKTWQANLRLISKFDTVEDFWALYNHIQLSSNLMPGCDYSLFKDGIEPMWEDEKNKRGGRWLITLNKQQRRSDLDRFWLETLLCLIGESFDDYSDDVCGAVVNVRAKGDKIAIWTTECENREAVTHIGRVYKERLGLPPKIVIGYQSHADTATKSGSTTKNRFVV

Turning to “mutant constitutively active 4EBP1(T37A/T46A) (from UniProt Q60876 1-117) (natural protein)”, the fold of 4EBP1 bound to eIF4E against cells with empty vector is 4 fold.
